{"source": "paper PMC3688800", "key": {"[1]": {"biological_target": "bovine trypsin (bovine)", "assay": "enzyme inhibition assay; chromogenic or fluorogenic substrates in 96-well plates at 37°C; enzyme pre-incubated with CrataBL for 10 min; apparent Ki (Kiapp) by fit to the equation for slow-tight binding; buffer specific for each enzyme (trypsin 40 nM in 0.1 M Tris-HCl pH 8.0 with CaCl2; Factor Xa 21 nM in 0.02 M Tris-HCl pH 7.4, 0.14 M NaCl, 5.0 mM CaCl2, 0.1% BSA)"}, "[2]": {"biological_target": "human Factor Xa (human)", "assay": "enzyme inhibition assay; chromogenic or fluorogenic substrates in 96-well plates at 37°C; enzyme pre-incubated with CrataBL for 10 min; apparent Ki (Kiapp) by fit to the equation for slow-tight binding; buffer specific for each enzyme (trypsin 40 nM in 0.1 M Tris-HCl pH 8.0 with CaCl2; Factor Xa 21 nM in 0.02 M Tris-HCl pH 7.4, 0.14 M NaCl, 5.0 mM CaCl2, 0.1% BSA)"}, "[3]": {"biological_target": "Crataeva tapia bark protein (CrataBL) (Crataeva tapia) (UniProt U3KRG0)", "assay": "SEC; Superdex 75 equilibrated in 0.15 M NaCl; at the concentration used in the crystallization trials"}}}
{"substance": "Crataeva tapia bark protein (CrataBL) (from UniProt U3KRG0 1-165) (natural protein)", "values": [{"measurement": "Ki", "setting": "[1]", "value": 43, "unit": "µM"}, {"measurement": "Ki", "setting": "[2]", "value": 8.6, "unit": "µM"}, {"measurement": "stoichiometry N", "setting": "[3]", "value": 2}]}
